Paper PMC12680531 (2026)
No end group written: not given here.

Target: 12A8
Assay: SPR

- Kd: 8.34 nM
Binder: TWGYPFHDGDYLNDE (also: biotin, position not given here, GSAGGS spacer, position not given here) [biotinylated hTM4SF4 (T126-E140) peptide containing a GSAGGS spacer]
